Results: patent US20130059311A1, “METHOD FOR THE IDENTIFICATION OF MEMORY MODULATING COMPOUNDS BY ASSESSING KIBRA EXPRESSION” (SYGNIS BIOSCIENCE GMBH & CO KG, priority 2010, published 2013)

Experiments:
[1] = target: T1, PKC zeta (Homo sapiens, UniProt Q05513); test: PKC zeta kinase activity assay on pulldowns from COS cells; assay type: biochemical; details: pulldowns from COS cells over-expressing PKC zeta and KIBRA vs PKC zeta alone
T1 construct: expressed in transfected cells; host or cells: COS cells
T1 sequence (Q05513 1-592): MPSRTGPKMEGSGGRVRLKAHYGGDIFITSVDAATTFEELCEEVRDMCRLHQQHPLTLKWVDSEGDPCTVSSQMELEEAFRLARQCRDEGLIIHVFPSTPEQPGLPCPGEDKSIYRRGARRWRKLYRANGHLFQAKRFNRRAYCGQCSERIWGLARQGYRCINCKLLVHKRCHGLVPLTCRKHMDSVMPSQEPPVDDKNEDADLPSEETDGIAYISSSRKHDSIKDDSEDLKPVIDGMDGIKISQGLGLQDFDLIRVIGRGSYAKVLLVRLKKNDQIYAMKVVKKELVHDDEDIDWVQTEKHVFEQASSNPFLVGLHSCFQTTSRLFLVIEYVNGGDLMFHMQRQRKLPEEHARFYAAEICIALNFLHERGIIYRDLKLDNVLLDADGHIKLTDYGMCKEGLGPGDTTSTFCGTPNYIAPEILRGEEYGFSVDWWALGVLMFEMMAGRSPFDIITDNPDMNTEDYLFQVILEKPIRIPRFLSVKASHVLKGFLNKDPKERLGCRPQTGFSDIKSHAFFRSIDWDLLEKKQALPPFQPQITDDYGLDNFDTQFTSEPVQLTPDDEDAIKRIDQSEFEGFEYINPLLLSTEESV
Procedure: To investigate the impact of KIBRA on PKC zeta activity itself, PKC zeta activity were determined in an enzyme assay. The kinase activity in the assay is detected by the phosphorylation of a substrate peptide by an antibody reaction according to manufactures instruction (HTScan PKC zeta kinase assay kit, Cell Signaling Technology Inc., Danvers, Mass., USA). The antibody is detected by a lanthanide-labeled secondary antibody, which can be measured in a fluorescent plate reader.
In order to analyze PKC zeta activity with and without KIBRA, COS cells over-expressing PKC zeta alone or in combination with KIBRA were lysed and PKC zeta was pulled down with respective PKC zeta binding beads.
Previous studies have shown that PKC zeta co-immunoprecipitates with KIBRA, and immunoreactive bands for KIBRA in the western blot analysis confirmed that PKC zeta pulldowns include KIBRA protein from cells also over-expressing KIBRA. When pulldowns from cells over-expressing PKC zeta were compared to cells over-expressing both PKC zeta and KIBRA for the phosphorylation of substrate peptide in the activity assay, a strong increase of PKC zeta activity by 50% was observed. […] Analysis of the kinase activity of the truncated form confirmed that the phosphorylation of the peptide was only mediated by PKC zeta and no other kinase attached to the beads.

[2] = test system: KIBRA (KIdney BRAin protein)

Substance	increase of PKC zeta activity [1] [%]	PKC zeta kinase activity (phosphorylation of substrate peptide, HTScan PKC zeta kinase assay kit) of PKC zeta pulldowns [2]
KIBRA: KIBRA protein over-expressed in COS cells together with PKC zeta	50	–
protein kinase C zeta	–	a strong increase of PKC zeta activity by 50% was observed
